{"source": "paper PMC11086627", "about": "“Substrate displacement of CK1 C-termini regulates kinase specificity” (Science Advances, 2024)", "key": {"CK1ε CK1εΔC, 1-294": {"target": "CK1ε CK1εΔC, 1-294 (UniProt P49674)", "sequence (P49674 383-416, stated change not applied)": "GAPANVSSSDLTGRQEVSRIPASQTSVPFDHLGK", "assay": "biotin-peptide streptavidin bead pull-down", "conditions": "reference: unphosphorylated EC peptide; sites S389,S390,S391,S405,T407,S408"}, "Hhp1 Hhp1ΔC, 1-296": {"target": "Hhp1 Hhp1ΔC, 1-296 (UniProt P40235)", "assay": "biotin-peptide streptavidin bead pull-down", "conditions": "reference: unphosphorylated Cter peptide; sites S326,S327,T345,T346,S354,T356"}, "[1]": {"target": "MBP-Hhp1ΔC (Hhp1 amino acids 1 to 296) (S. pombe) (UniProt P40235)", "assay": "pull-down; competitive equilibrium binding assay: as the equilibrium binding assay on peptide beads, with 25 μM substrate (casein or Rec11) added along with the kinase; fit constrained to Bmax = 1 for the apparent Kd; Ki from Kd(app)=Kd(1+[I]/Ki)"}, "[2]": {"target": "Hhp1 Cter-6P peptide (amino acids 297 to 365 of Hhp1, phosphorylated at six sites, biotin-conjugated) (S. pombe) (UniProt P40235)", "assay": "pull-down; competitive equilibrium binding assay: as the equilibrium binding assay on peptide beads, with 25 μM substrate (casein or Rec11) added along with the kinase; fit constrained to Bmax = 1 for the apparent Kd; Ki from Kd(app)=Kd(1+[I]/Ki)"}, "[3]": {"target": "Hhp1 Cter-6P peptide (amino acids 297 to 365 of Hhp1, phosphorylated at six sites, biotin-conjugated) (S. pombe) (UniProt P40235)", "assay": "pull-down; equilibrium binding assay: peptide-conjugated streptavidin beads at 0 to 847 μM peptide incubated with 100 ng of MBP-Hhp1ΔC in binding buffer [50 mM tris (pH 7.0), 25 mM NaCl, 1 mM EDTA, 1 mM DTT], 1 hour at 4°C; unbound kinase in the supernatant by Western blot and densitometry; one-site specific binding fit"}, "[4]": {"target": "Hhp1 C-terminus (Cter), 297-365 (UniProt P40235)", "assay": "equilibrium bead binding, supernatant depletion", "conditions": "reference: wild-type Hhp1ΔC; sites T221,T222"}, "[5]": {"target": "T1, MBP-Hhp1ΔC (Hhp1 amino acids 1 to 296) (S. pombe, UniProt P40235 1-296)", "T1 chain": "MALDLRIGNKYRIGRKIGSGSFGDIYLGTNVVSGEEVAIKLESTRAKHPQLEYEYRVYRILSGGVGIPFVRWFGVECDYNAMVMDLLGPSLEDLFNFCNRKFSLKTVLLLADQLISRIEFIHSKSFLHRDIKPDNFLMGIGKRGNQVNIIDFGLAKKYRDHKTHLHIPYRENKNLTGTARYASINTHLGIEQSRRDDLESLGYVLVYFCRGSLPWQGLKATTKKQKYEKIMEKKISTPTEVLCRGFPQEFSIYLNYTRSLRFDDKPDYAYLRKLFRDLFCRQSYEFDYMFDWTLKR", "assay": "ITC; second replicate"}, "[6]": {"target": "MBP-Hhp1ΔC (Hhp1 amino acids 1 to 296) (S. pombe) (UniProt P40235)", "assay": "ITC; Nano-ITC, 25°C, 10 mM NaPO4 (pH 7.5), 150 mM NaCl, 0.25 mM TCEP; cell: 100 μM MBP-Hhp1ΔC or MBP-CK1εΔC; syringe: 2 mM peptide; single-site binding model; duplicate"}, "[7]": {"target": "T1, MBP-Hhp1ΔC (Hhp1 amino acids 1 to 296)", "assay": "apparent, in the presence of 25 uM Rec11"}, "[8]": {"target": "MBP-CK1εΔC (human CK1ε amino acids 1-294) (human) (UniProt P49674)", "sequence (P49674 1-294, stated change not applied)": "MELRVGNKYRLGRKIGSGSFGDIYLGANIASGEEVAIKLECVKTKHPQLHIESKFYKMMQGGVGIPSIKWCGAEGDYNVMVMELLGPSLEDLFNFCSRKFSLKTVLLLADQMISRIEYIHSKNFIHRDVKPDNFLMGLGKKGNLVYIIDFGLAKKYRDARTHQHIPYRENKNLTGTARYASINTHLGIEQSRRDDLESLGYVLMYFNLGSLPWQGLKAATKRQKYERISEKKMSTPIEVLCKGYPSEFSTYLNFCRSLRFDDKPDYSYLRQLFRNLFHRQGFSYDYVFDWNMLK", "assay": "ITC; Nano-ITC, 25°C, 10 mM NaPO4 (pH 7.5), 150 mM NaCl, 0.25 mM TCEP; cell: 100 μM MBP-Hhp1ΔC or MBP-CK1εΔC; syringe: 2 mM peptide; single-site binding model; duplicate"}, "MBP-CK1εΔC-T220N": {"target": "T2, MBP-CK1εΔC-T220N (human, UniProt P49674 1-294, T220N)", "T2 construct": "human CK1ε, amino acids 1-294, kinase domain autophosphorylation site T220 mutated; source: E. coli Rosetta2(DE3)pLysS, purified (amylose beads, eluted with maltose)", "T2 sequence (looked up)": "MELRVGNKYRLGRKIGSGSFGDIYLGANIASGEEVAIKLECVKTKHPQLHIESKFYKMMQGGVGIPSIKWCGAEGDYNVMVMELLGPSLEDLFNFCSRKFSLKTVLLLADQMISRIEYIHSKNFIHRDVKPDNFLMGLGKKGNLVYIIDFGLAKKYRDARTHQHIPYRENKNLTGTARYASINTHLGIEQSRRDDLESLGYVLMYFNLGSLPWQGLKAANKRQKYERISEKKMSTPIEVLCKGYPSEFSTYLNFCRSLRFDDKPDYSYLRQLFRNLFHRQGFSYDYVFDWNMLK", "assay": "pull-down; biotin peptide on streptavidin sepharose (500 μM peptide) incubated with 2 μg of MBP-kinaseΔC in binding buffer [50 mM tris (pH 7.0), 25 mM NaCl, 1 mM EDTA, 1 mM DTT], 1 hour at 4°C; beads blocked in 5% BSA; bound protein detected by Western blot with anti-MBP", "conditions": "both partners purified"}, "MBP-Hhp1ΔC-VV": {"target": "T3, MBP-Hhp1ΔC-VV (S. pombe, UniProt P40235 1-296)", "T3 chain": "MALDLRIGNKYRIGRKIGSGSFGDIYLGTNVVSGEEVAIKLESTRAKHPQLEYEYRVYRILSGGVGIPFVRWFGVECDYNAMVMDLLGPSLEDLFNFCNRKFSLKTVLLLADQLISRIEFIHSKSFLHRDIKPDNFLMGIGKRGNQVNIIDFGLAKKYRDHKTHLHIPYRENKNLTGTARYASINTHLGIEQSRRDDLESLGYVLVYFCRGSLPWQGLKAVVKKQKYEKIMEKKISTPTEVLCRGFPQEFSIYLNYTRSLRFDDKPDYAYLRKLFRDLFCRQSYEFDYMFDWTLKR"}, "[9]": {"target": "T4, MBP-Hhp1ΔC (Hhp1 amino acids 1 to 296) (S. pombe, UniProt P40235 1-296)", "T4 construct": "Hhp1, CK1 enzyme of Schizosaccharomyces pombe, C-terminally truncated, amino acids 1-296; cDNA cloned into pMAL-C2; also called Hhp1-delC; Hhp1 kinase domain; source: E. coli Rosetta2(DE3)pLysS, purified (amylose beads, eluted with maltose)", "T4 sequence (looked up)": "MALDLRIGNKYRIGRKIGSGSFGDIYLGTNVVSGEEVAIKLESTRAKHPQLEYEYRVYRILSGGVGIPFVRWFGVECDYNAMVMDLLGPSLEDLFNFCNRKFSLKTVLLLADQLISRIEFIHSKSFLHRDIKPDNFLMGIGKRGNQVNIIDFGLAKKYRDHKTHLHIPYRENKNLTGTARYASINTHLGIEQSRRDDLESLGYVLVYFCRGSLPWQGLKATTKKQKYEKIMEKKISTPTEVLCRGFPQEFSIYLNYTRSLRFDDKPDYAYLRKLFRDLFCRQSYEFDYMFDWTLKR", "assay": "pull-down; competitive equilibrium binding assay: as the equilibrium binding assay on peptide beads, with 25 μM substrate (casein or Rec11) added along with the kinase; fit constrained to Bmax = 1 for the apparent Kd; Ki from Kd(app)=Kd(1+[I]/Ki)", "conditions": "both partners purified"}}, "note": "Square brackets hold non-standard residues; d marks the D form. Ends that are not written are not given here. * marks the point of attachment. Biotin = O=C1N[C@H]2[C@H](CS[C@H]2CCCCC(=O)*)N1; pT = C[C@@H](OP(=O)(O)O)[C@H](N)C(=O)O; pS = N[C@@H](COP(=O)(O)O)C(=O)O"}
{"molecule": "CK1ε extreme C-terminus (EC), 383-416 (from UniProt P49674) EC-6P peptide", "values": [{"measurement": "binding against the reference", "setting": "CK1ε CK1εΔC, 1-294", "value": "gained"}]}
{"molecule": "Hhp1 C-terminus (Cter), 297-365 (from UniProt P40235) Cter-6P peptide", "values": [{"measurement": "binding against the reference", "setting": "Hhp1 Hhp1ΔC, 1-296", "value": "gained"}]}
{"molecule": "dephosphorylated alpha casein (natural protein)", "values": [{"measurement": "Ki", "setting": "[1]", "value": 14, "unit": "µM"}]}
{"molecule": "MBP-Hhp1ΔC (Hhp1 amino acids 1 to 296) (from UniProt P40235 1-296) (domain or fragment)", "values": [{"measurement": "Kd(app) in the presence of 25 μM casein", "setting": "[2]", "value": 658, "unit": "µM"}, {"measurement": "Kd", "setting": "[3]", "value": 240, "unit": "µM"}]}
{"molecule": "Hhp1 Hhp1ΔC, 1-296 (from UniProt P40235) Hhp1ΔC-VV", "values": [{"measurement": "binding against the reference", "setting": "[4]", "value": "gained"}]}
{"molecule": "Hhp1 Cter-6P peptide (amino acids 297 to 365 of Hhp1, phosphorylated at six sites, biotin-conjugated) (peptide) peptide: Biotin-KTQQDQQHQQQLQQQLSATPQAINPPPER[pS][pS]FRNYQKQNFDEKGGDIN[pT][pT]VPVINDP[pS]A[pT]GAQYINRPN", "values": [{"measurement": "Kd", "setting": "[5]", "value": 283, "unit": "µM"}, {"measurement": "Kd", "setting": "[6]", "value": 335, "unit": "µM"}, {"measurement": "Kd", "setting": "[7]", "value": 425, "unit": "µM"}]}
{"molecule": "Biotin-GAPANV[pS][pS][pS]DLTGRQEVSRIPA[pS]Q[pT][pS]VPFDHLGK (peptide, UniProt P49674 383-416, looked up, human CK1ε, final 34 amino acids, 383-416; source: synthetic peptide (LifeTein LLC))", "note": "[CK1ε EC-6P peptide (amino acids 383 to 416 of CK1ε, phosphorylated at six sites, biotin-conjugated)]", "values": [{"measurement": "Kd", "setting": "[8]", "value": 343, "unit": "µM"}, {"measurement": "binding result", "setting": "MBP-CK1εΔC-T220N", "value": "binds"}]}
{"molecule": "Hhp1 Cter peptide (amino acids 297 to 365 of Hhp1, unphosphorylated, biotin-conjugated) (peptide) peptide: Biotin-KTQQDQQHQQQLQQQLSATPQAINPPPERSSFRNYQKQNFDEKGGDINTTVPVINDPSATGAQYINRPN", "values": [{"measurement": "Kd", "setting": "MBP-Hhp1ΔC-VV", "value": 269, "unit": "µM"}]}
{"molecule": "MRFEFESDASSHLNEVLTELESVELENVEYEGP (domain or fragment, UniProt Q92380 1-33, looked up, Rec11, physiological Hhp1 substrate involved in meiosis, N terminus, amino acids 1-33; source: expressed and purified as previously described (16))", "note": "[GST-Rec11-N3 (N terminus of Rec11, amino acids 1-33)]", "values": [{"measurement": "Ki", "setting": "[9]", "value": 32, "unit": "µM"}]}
